From patent US20210171647A1 (WUXI BIOLOGICS SHANGHAI, published 2021)

What was measured:
Experiment in all cases: ELISA, antibody coated, OX40-ECD.His mutant supernatant; relative to silent alanine substitutions;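 further: captured OX40 mutant protein detected with HRP-labelled anti-His antibody, absorbance read-out, scaled to the mean signal of control mutants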
human OX40-ECD.His Q156A = target: T1, human OX40-ECD.His Q156A (human, UniProt P43489 29-214)
T1 construct: extracellular domain; not shown: C-terminal His-tag
T1 sequence (looked up): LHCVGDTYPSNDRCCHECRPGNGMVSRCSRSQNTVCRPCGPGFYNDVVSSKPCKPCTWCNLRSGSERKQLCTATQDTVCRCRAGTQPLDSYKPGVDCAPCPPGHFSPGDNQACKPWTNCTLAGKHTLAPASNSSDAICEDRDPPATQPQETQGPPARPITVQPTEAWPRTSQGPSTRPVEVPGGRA

human OX40-ECD.His P69A = target: T2, human OX40-ECD.His P69A (human, UniProt P43489 29-214)
T2 construct: extracellular domain; not shown: C-terminal His-tag
T2 sequence (looked up): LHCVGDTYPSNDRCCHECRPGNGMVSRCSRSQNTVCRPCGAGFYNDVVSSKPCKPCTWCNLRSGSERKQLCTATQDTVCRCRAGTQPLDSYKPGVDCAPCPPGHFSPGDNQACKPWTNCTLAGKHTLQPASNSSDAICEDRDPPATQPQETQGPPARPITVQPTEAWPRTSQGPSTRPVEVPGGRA

human OX40-ECD.His D34A = target: T3, human OX40-ECD.His D34A (human, UniProt P43489 29-214)
T3 construct: extracellular domain; not shown: C-terminal His-tag
T3 sequence (looked up): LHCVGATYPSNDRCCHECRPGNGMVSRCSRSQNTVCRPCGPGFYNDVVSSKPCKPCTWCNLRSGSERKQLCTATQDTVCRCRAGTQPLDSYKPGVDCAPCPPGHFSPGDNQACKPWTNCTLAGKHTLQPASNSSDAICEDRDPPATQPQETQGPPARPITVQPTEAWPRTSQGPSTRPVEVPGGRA

human OX40-ECD.His V123A = target: T4, human OX40-ECD.His V123A (human, UniProt P43489 29-214)
T4 construct: extracellular domain; not shown: C-terminal His-tag
T4 sequence (looked up): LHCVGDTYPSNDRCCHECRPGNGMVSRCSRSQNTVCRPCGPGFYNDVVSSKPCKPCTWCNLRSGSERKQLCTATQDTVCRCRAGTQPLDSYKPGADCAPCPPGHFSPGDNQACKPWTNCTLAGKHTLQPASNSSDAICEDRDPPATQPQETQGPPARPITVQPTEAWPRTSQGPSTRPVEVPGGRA

human OX40-ECD.His L98A = target: T5, human OX40-ECD.His L98A (human, UniProt P43489 29-214)
T5 construct: extracellular domain; not shown: C-terminal His-tag
T5 sequence (looked up): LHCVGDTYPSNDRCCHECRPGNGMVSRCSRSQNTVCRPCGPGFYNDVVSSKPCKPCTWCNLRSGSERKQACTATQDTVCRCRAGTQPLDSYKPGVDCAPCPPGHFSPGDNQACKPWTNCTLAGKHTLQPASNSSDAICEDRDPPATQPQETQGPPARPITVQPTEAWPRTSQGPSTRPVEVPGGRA

human OX40-ECD.His T105A = target: T6, human OX40-ECD.His T105A (human, UniProt P43489 29-214)
T6 construct: extracellular domain; not shown: C-terminal His-tag
T6 sequence (looked up): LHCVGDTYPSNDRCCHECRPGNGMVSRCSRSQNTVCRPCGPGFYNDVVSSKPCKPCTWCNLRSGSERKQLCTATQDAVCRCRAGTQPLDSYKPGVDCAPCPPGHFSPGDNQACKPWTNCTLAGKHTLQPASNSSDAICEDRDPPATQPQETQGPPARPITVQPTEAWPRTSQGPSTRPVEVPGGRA

human OX40-ECD.His D74A = target: T7, human OX40-ECD.His D74A (human, UniProt P43489 29-214)
T7 construct: extracellular domain; not shown: C-terminal His-tag
T7 sequence (looked up): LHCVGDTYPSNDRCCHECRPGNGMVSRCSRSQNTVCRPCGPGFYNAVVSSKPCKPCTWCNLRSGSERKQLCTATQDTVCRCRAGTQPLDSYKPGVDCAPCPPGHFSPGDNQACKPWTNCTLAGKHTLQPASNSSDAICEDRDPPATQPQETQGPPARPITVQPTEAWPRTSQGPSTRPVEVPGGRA

human OX40-ECD.His K152A = target: T8, human OX40-ECD.His K152A (human, UniProt P43489 29-214)
T8 construct: extracellular domain; not shown: C-terminal His-tag
T8 sequence (looked up): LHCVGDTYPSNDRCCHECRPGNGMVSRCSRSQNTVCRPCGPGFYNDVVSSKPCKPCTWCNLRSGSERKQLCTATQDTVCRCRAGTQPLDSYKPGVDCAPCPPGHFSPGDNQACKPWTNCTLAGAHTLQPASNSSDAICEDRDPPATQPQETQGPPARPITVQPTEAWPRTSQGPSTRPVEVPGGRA

human OX40-ECD.His I165A = target: T9, human OX40-ECD.His I165A (human, UniProt P43489 29-214)
T9 construct: extracellular domain; not shown: C-terminal His-tag
T9 sequence (looked up): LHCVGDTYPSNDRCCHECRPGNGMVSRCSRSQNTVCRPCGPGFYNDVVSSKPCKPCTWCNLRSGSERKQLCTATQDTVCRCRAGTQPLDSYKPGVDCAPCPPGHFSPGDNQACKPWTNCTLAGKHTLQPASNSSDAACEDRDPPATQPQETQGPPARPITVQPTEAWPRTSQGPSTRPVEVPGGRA

human OX40-ECD.His K120A = target: T10, human OX40-ECD.His K120A (human, UniProt P43489 29-214)
T10 construct: extracellular domain; not shown: C-terminal His-tag
T10 sequence (looked up): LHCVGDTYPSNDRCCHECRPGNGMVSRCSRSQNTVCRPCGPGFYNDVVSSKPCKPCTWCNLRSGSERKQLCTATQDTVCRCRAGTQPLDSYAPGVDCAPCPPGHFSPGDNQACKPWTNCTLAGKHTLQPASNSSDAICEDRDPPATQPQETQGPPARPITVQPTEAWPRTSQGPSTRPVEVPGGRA

B1: 1.134.9-u1-IgG1L (antibody, V domains shown)
VH: QVQLQESGPGLVKPSGTLSLTCAVSGGSISSYNWWSWVRQPPGKGLEWIGEIYHGGNTNYNPSLKSRVTMSVDNSKNQFSLKLSSVTAADTAVYYCARAPGDWGGSPYFDFWGQGTLVTVSS
VL: SSELTQDPAVSVALGQTVRITCQGDNLRTYYASWYQQKPGQAPILLIYGRNKRPSGIPDRFSGSSSGNTASLTITGAQAEDEAAYYCNSRDSSGNPVVFGGGTKLTVL
notes: fully human IgG1, lambda
Human OX40-ECD.His Q156A
  Fold Change: 0.97
Human OX40-ECD.His P69A
  Fold Change: 0.987
Human OX40-ECD.His D34A
  Fold Change: 0.991
Human OX40-ECD.His V123A
  Fold Change: 1
Human OX40-ECD.His L98A
  Fold Change: 1.01
Human OX40-ECD.His T105A
  Fold Change: 0.787
Human OX40-ECD.His D74A
  Fold Change: 0.796
Human OX40-ECD.His K152A
  Fold Change: 0.81
Human OX40-ECD.His I165A
  Fold Change: 0.871
Human OX40-ECD.His K120A
  Fold Change: 0.896
